Results from patent US12168773B2, “Engineered phosphoenolpyruvate carboxylase enzymes” (The Regents of the University of California, priority 2019, dated 2024).

Tests used:
[1] = tested on: Arabidopsis thaliana PPC1 (AtPPC1, C3 PEPC); experiment: malate dehydrogenase coupled PEPC enzymatic assay, Arabidopsis C3 PPC1 and engineered variants; format: biochemical; conditions: for Km: 0-7.5 mM phosphoenolpyruvate, read-out: Km PEP; for Km / Vmax: 25° C, HEPES pH7.5
From the text: For both Arabidopsis C3 PPC1 (AtPPC1) and maize C4 PPC1 (ZmPPC1), the entire coding sequence for each was cloned into pET22b, which contains an amino-terminal 6×-HIS tag for protein purification, and expression was driven by the T7 promoter and lac operon. Relevant mutations were introduced by the Stratagene QuikChange mutagenesis kit using PCR amplification. Both wild type and mutant cDNA constructs were sequenced entirely following cloning into pet22b. Proteins were produced by growing transformed E. coli (BL21 CodonPlus) in autoinduction medium at 18° C. for 16 hours. Proteins were isolated by sonication of bacterial cells followed by passage over a nickel sepharose affinity column, elution with imidazole and separation on a GE SUPERDEX HILOAD 200 PG 16/60 all using an AKTA FPLC.
Enzyme analysis was conducted in vitro using protein that was generated by expression in E. coli using the pET22b vector. For expression, pET22b constructs were transformed into E. coli BL21-DE3 codon plus RIL cells and grown at 37° C. in autoinduction media until reaching an OD=1 after which these were transferred to 18° C. for 18 hours. Samples were collected and lysed by sonication. Protein was purified by passage through a His-trap nickel affinity column on an Akta FPLC and then eluted with 400 mM imidazole. Partially purified protein was then separated on an FPLC equipped with a HiPrep S200 size exclusion column (16/60) after which collected sample was concentrated by centrifugation to a final concentration of 4 mg/ml in 50% glycerol. Samples were stored at −20° C.
For enzymatic assays, a malate dehydrogenase coupled reaction was conducted with a range of substrate concentrations (0-7.5 mM phosphoenolpyruvate pyruvate) and a range of concentrations of allosteric inhibitor (0-50 mM malate). Assays were monitored using a Victor2 microplate reader at 25° C. Reactions consisted of […] PPC enzyme variants, 50 mM HEPES pH7.5, 10 mM MgCl2, 10 mM KHCO3 (carbonate substrate), 0.2 mM NADH, and 10 units/ml of malate dehydrogenase. Reaction time was 15 minutes and samples were measured on an ˜40 second interval. For measurement, which monitors loss of NADH, excitation wavelength was 340 nM and emission wavelength was 460 nM. From these assays, the enzyme kinetics of Tables 4-1 and 4-2 were determined for each enzyme variant.

[2] = tested on: transgenic Arabidopsis seedlings; experiment: root growth analysis of transgenic Arabidopsis in the presence of aluminum; format: in vivo, Arabidopsis thaliana; conditions: day 7, 20° C, soaked gel, aluminum toxicity equivalent to about 50-100 μM; versus plants expressing wt AtPPC1
Method: Root growth was examined in transgenic Arabidopsis engineered to express wt AtPPC1, or a variant PEPC (G678S AtPPC1 or R886G AtPPC1) in a genotypic background devoid of expression of native AtPPC1. Seedlings from the transgenic Arabidopsis strains were grown at 20° C. in a soaked gel environment with aluminum toxicity equivalent to about 50-100 μM in the absence of agar. Root growth was assessed at day 7. […] This is consistent with the improved enzyme kinetics of the G678S AtPPC1 or R886G AtPPC1 enzymes described in Example 5.

Row | Molecule | Km [1] [µM] | Vmax [1] [units/mg] | increase in catalytic efficiency over wt AtPPC1 ([1]; Kcat/Km relative to wt AtPPC1) [fold] | reduction in Km ([1]; compared with wt AtPPC1) [%] | root growth in the presence of aluminum [2]
1 | AtPPC1 G678S: engineered Arabidopsis thaliana PPC1 with G678S substitution (alr-128), SEQ ID NO:11 (protein) MANRKLEKMASIDVHLRQLVPGKVSEDDKLVEYDALLLDRFLDILQDLHGEDLRETVQELYEHSAEYEGKHEPKKLEELGSVLTSLDPGDSIVIAKAFSHMLNLANLAEEVQIAYRRRIKKLKKGDFVDESSATTESDLEETFKKLVGDLNKSPEEIFDALKNQTVDLVLTAHPTQSVRRSLLQKHGRIRDCLAQLYAKDITPDDKQELDEALQREIQAAFRTDEIKRTPPTPQDEMRAGMSYFHETIWKGVPKFLRRVDTALKNIGIEERVPYNAPLIQFSSWMGGDRDGNPRVTPEVTRDVCLLARMMAATMYFNQIEDLMFEMSMWRCNDELRARADEVHANSRKDAAKHYIEFWKSIPTTEPYRVILGDVRDKLYHTRERAHQLLSNGHSDVPVEATFINLEQFLEPLELCYRSLCSCGDRPIADGSLLDFLRQVSTFGLSLVRLDIRQESDRHTDVLDAITTHLDIGSYREWSEERRQEWLLSELSGKRPLFGSDLPKTEEIADVLDTFHVIAELPADSFGAYIISMATAPSDVLAVELLQRECRVKQPLRVVPLFEKLADLEAAPAAVARLFSVDWYKNRINGKQEVMIGYSDSGKDAGRLSAAWQLYKAQEELVKVAKEYGVKLTMFHGRGGTVGRGGGPTHLAILSQPPDTINGSLRVTVQGEVIEQSFSEEHLCFRTLQRFTAATLEHGMRPPISPKPEWRALLDEMAVVATEEYRSVVFQEPRFVEYFRLATPELEYGRMNIGSRPSKRKPSGGIESLRAIPWIFAWTQTRFHLPVWLGFGSAIRHVIEKDVRNLHMLQDMYQHWPFFRVTIDLIEMVFAKGDPGIAALYDKLLVSEELWPFGEKLRANFEETKKLILQTAGHKDLLEGDPYLKQRLRLRDSYITTLNVCQAYTLKRIRDPSYHVTLRPHISKEIAESSKPAKELIELNPTSEYAPGLEDTLILTMKGIAAGLQNTG | 433 ± 40 | 17.784 ± 0.44 | ~5 | 85 | large increase
2 | AtPPC1 R886G: engineered Arabidopsis thaliana PPC1 enzyme with R886G substitution (protein, UniProt Q9MAH0 1-967, looked up, variant R886G) Phosphoenolpyruvate …: MANRKLEKMASIDVHLRQLVPGKVSEDDKLVEYDALLLDRFLDILQDLHGEDLRETVQELYEHSAEYEGKHEPKKLEELGSVLTSLDPGDSIVIAKAFSHMLNLANLAEEVQIAYRRRIKKLKKGDFVDESSATTESDLEETFKKLVGDLNKSPEEIFDALKNQTVDLVLTAHPTQSVRRSLLQKHGRIRDCLAQLYAKDITPDDKQELDEALQREIQAAFRTDEIKRTPPTPQDEMRAGMSYFHETIWKGVPKFLRRVDTALKNIGIEERVPYNAPLIQFSSWMGGDRDGNPRVTPEVTRDVCLLARMMAATMYFNQIEDLMFEMSMWRCNDELRARADEVHANSRKDAAKHYIEFWKSIPTTEPYRVILGDVRDKLYHTRERAHQLLSNGHSDVPVEATFINLEQFLEPLELCYRSLCSCGDRPIADGSLLDFLRQVSTFGLSLVRLDIRQESDRHTDVLDAITTHLDIGSYREWSEERRQEWLLSELSGKRPLFGSDLPKTEEIADVLDTFHVIAELPADSFGAYIISMATAPSDVLAVELLQRECRVKQPLRVVPLFEKLADLEAAPAAVARLFSVDWYKNRINGKQEVMIGYSDSGKDAGRLSAAWQLYKAQEELVKVAKEYGVKLTMFHGRGGTVGRGGGPTHLAILSQPPDTINGSLRVTVQGEVIEQSFGEEHLCFRTLQRFTAATLEHGMRPPISPKPEWRALLDEMAVVATEEYRSVVFQEPRFVEYFRLATPELEYGRMNIGSRPSKRKPSGGIESLRAIPWIFAWTQTRFHLPVWLGFGSAIRHVIEKDVRNLHMLQDMYQHWPFFRVTIDLIEMVFAKGDPGIAALYDKLLVSEELWPFGEKLRANFEETKKLILQTAGHKDLLEGDPYLKQGLRLRDSYITTLNVCQAYTLKRIRDPSYHVTLRPHISKEIAESSKPAKELIELNPTSEYAPGLEDTLILTMKGIAAGLQNTG | 1110 ± 36 | 12.586 ± 0.14 |  |  | large increase
3 | AtPPC1 wild type: wild type Arabidopsis thaliana PPC1, C3 PEPC, SEQ ID NO:1 (protein) MANRKLEKMASIDVHLRQLVPGKVSEDDKLVEYDALLLDRFLDILQDLHGEDLRETVQELYEHSAEYEGKHEPKKLEELGSVLTSLDPGDSIVIAKAFSHMLNLANLAEEVQIAYRRRIKKLKKGDFVDESSATTESDLEETFKKLVGDLNKSPEEIFDALKNQTVDLVLTAHPTQSVRRSLLQKHGRIRDCLAQLYAKDITPDDKQELDEALQREIQAAFRTDEIKRTPPTPQDEMRAGMSYFHETIWKGVPKFLRRVDTALKNIGIEERVPYNAPLIQFSSWMGGDRDGNPRVTPEVTRDVCLLARMMAATMYFNQIEDLMFEMSMWRCNDELRARADEVHANSRKDAAKHYIEFWKSIPTTEPYRVILGDVRDKLYHTRERAHQLLSNGHSDVPVEATFINLEQFLEPLELCYRSLCSCGDRPIADGSLLDFLRQVSTFGLSLVRLDIRQESDRHTDVLDAITTHLDIGSYREWSEERRQEWLLSELSGKRPLFGSDLPKTEEIADVLDTFHVIAELPADSFGAYIISMATAPSDVLAVELLQRECRVKQPLRVVPLFEKLADLEAAPAAVARLFSVDWYKNRINGKQEVMIGYSDSGKDAGRLSAAWQLYKAQEELVKVAKEYGVKLTMFHGRGGTVGRGGGPTHLAILSQPPDTINGSLRVTVQGEVIEQSFGEEHLCFRTLQRFTAATLEHGMRPPISPKPEWRALLDEMAVVATEEYRSVVFQEPRFVEYFRLATPELEYGRMNIGSRPSKRKPSGGIESLRAIPWIFAWTQTRFHLPVWLGFGSAIRHVIEKDVRNLHMLQDMYQHWPFFRVTIDLIEMVFAKGDPGIAALYDKLLVSEELWPFGEKLRANFEETKKLILQTAGHKDLLEGDPYLKQRLRLRDSYITTLNVCQAYTLKRIRDPSYHVTLRPHISKEIAESSKPAKELIELNPTSEYAPGLEDTLILTMKGIAAGLQNTG | 2740 ± 166 | 24.992 ± 0.69 |  |  | 
4 | AtPPC1 T778I: engineered Arabidopsis thaliana PPC1 with T778I substitution (alr-139), SEQ ID NO:12 (protein) MANRKLEKMASIDVHLRQLVPGKVSEDDKLVEYDALLLDRFLDILQDLHGEDLRETVQELYEHSAEYEGKHEPKKLEELGSVLTSLDPGDSIVIAKAFSHMLNLANLAEEVQIAYRRRIKKLKKGDFVDESSATTESDLEETFKKLVGDLNKSPEEIFDALKNQTVDLVLTAHPTQSVRRSLLQKHGRIRDCLAQLYAKDITPDDKQELDEALQREIQAAFRTDEIKRTPPTPQDEMRAGMSYFHETIWKGVPKFLRRVDTALKNIGIEERVPYNAPLIQFSSWMGGDRDGNPRVTPEVTRDVCLLARMMAATMYFNQIEDLMFEMSMWRCNDELRARADEVHANSRKDAAKHYIEFWKSIPTTEPYRVILGDVRDKLYHTRERAHQLLSNGHSDVPVEATFINLEQFLEPLELCYRSLCSCGDRPIADGSLLDFLRQVSTFGLSLVRLDIRQESDRHTDVLDAITTHLDIGSYREWSEERRQEWLLSELSGKRPLFGSDLPKTEEIADVLDTFHVIAELPADSFGAYIISMATAPSDVLAVELLQRECRVKQPLRVVPLFEKLADLEAAPAAVARLFSVDWYKNRINGKQEVMIGYSDSGKDAGRLSAAWQLYKAQEELVKVAKEYGVKLTMFHGRGGTVGRGGGPTHLAILSQPPDTINGSLRVTVQGEVIEQSFGEEHLCFRTLQRFTAATLEHGMRPPISPKPEWRALLDEMAVVATEEYRSVVFQEPRFVEYFRLATPELEYGRMNIGSRPSKRKPSGGIESLRAIPWIFAWIQTRFHLPVWLGFGSAIRHVIEKDVRNLHMLQDMYQHWPFFRVTIDLIEMVFAKGDPGIAALYDKLLVSEELWPFGEKLRANFEETKKLILQTAGHKDLLEGDPYLKQRLRLRDSYITTLNVCQAYTLKRIRDPSYHVTLRPHISKEIAESSKPAKELIELNPTSEYAPGLEDTLILTMKGIAAGLQNTG | 1090 ± 27 | 14.738 ± 0.15 |  |  | 
